B1: Interferon alpha/beta receptor 2 (Homo sapiens), P48551 (parent)
chain: MLLSQNAFIFRSLNLVLMVYISLVFGISYDSPDYTDESCTFKISLRNFRSILSWELKNHSIVPTHYTLLYTIMSKPEDLKVVKNCANTTRSFCDLTDEWRSTHEAYVTVLEGFSGNTTLFSCSHNFWLAIDMSFEPPEFEIVGFTNHINVMVKFPSIVEEELQFDLSLVIEEQSEGIVKKHKPEIKGNMSGNFTYIIDKLIPNTNYCVSVYLEHSDEQAVIKSPLKCTLLPPGQESESAESAKIGGIITVFLIALVLTSTIVTLKWIGYICLRNSLPKVLNFHNFLAWPFPNLPPLEAMDMVEVIYINRKKKVWDYNYDDESDSDTEAAPRTSGGGYTMHGLTVRPLGQASATSTESQLIDPESEEEPDLPEVDVELPTMPKDSPQQLELLSGPCERRKSPLQDPFPEEDYSSTEGSGGRITFNVDLNSVFLRVLDDEDSDDLEAPLMLSSHLEEMVDPEDPDNVQSNHLLASGEGTQPTFPSPSSEGLWSEDAPSDQSDTSESDVDLGDGYIMR
B2: Interferon regulatory factor 9 (Homo sapiens), Q00978 (parent)
chain: MASGRARCTRKLRNWVVEQVESGQFPGVCWDDTAKTMFRIPWKHAGKQDFREDQDAAFFKAWAIFKGKYKEGDTGGPAVWKTRLRCALNKSSEFKEVPERGRMDVAEPYKVYQLLPPGIVSGQPGTQKVPSKRQHSSVSSERKEEEDAMQNCTLSPSVLQDSLNNEEEGASGGAVHSDIGSSSSSSSPEPQEVTDTTEAPFQGDQRSLEFLLPPEPDYSLLLTFIYNGRVVGEAQVQSLDCRLVAEPSGSESSMEQVLFPKPGPLEPTQRLLSQLERGILVASNPRGLFVQRLCPIPISWNAPQAPPGPGPHLLPSNECVELFRTAYFCRDLVRYFQGLGPPPKFQVTLNFWEESHGSSHTPQNLITVKMEQAFARYLLEQTPEQQAAILSLV
partner: B1 chain
B3: Interferon alpha/beta receptor 2 (Homo sapiens), P48551 (parent)
chain: B1 chain
partner: B2 chain

Variants of: B1
Settings: with cbp_human CREBBP

Row | effect of a mutation on the interaction | Variant
1 | decreasing interaction | MLLSQNAFIFRSLNLVLMVYISLVFGISYDSPDYTDESCTFKISLRNFRSILSWELKNHSIVPTHYTLLYTIMSKPEDLKVVKNCANTTRSFCDLTDEWRSTHEAYVTVLEGFSGNTTLFSCSHNFWLAIDMSFEPPEFEIVGFTNHINVMVKFPSIVEEELQFDLSLVIEEQSEGIVKKHKPEIKGNMSGNFTYIIDKLIPNTNYCVSVYLEHSDEQAVIKSPLKCTLLPPGQESESAESAKIGGIITVFLIALVLTSTIVTLKWIGYICLRNSLPKVLNFHNFLAWPFPNLPPLEAMDMVEVIYINRKKKVWDYNYDDESDSDTEAAPRTSGGGYTMHGLTVRPLGQASATSTESQLIDPESEEEPDLPEVDVELPTMPKDAPQQLELLSGPCERRKSPLQDPFPEEDYSSTEGSGGRITFNVDLNSVFLRVLDDEDSDDLEAPLMLSSHLEEMVDPEDPDNVQSNHLLASGEGTQPTFPSPSSEGLWSEDAPSDQSDTSESDVDLGDGYIMR [S384A]
2 | decreasing interaction | MLLSQNAFIFRSLNLVLMVYISLVFGISYDSPDYTDESCTFKISLRNFRSILSWELKNHSIVPTHYTLLYTIMSKPEDLKVVKNCANTTRSFCDLTDEWRSTHEAYVTVLEGFSGNTTLFSCSHNFWLAIDMSFEPPEFEIVGFTNHINVMVKFPSIVEEELQFDLSLVIEEQSEGIVKKHKPEIKGNMSGNFTYIIDKLIPNTNYCVSVYLEHSDEQAVIKSPLKCTLLPPGQESESAESAKIGGIITVFLIALVLTSTIVTLKWIGYICLRNSLPKVLNFHNFLAWPFPNLPPLEAMDMVEVIYINRKKKVWDYNYDDESDSDTEAAPRTSGGGYTMHGLTVRPLGQASATSTESQLIDPEAEEEPDLPEVDVELPTMPKDSPQQLELLSGPCERRKSPLQDPFPEEDYSSTEGSGGRITFNVDLNSVFLRVLDDEDSDDLEAPLMLSSHLEEMVDPEDPDNVQSNHLLASGEGTQPTFPSPSSEGLWSEDAPSDQSDTSESDVDLGDGYIMR [S364A]

Variants of: B2
Settings: with inar2_human IFNAR2, P48551

Row | effect of a mutation on the interaction | Variant
3 | decreasing interaction | MASGRARCTRKLRNWVVEQVESGQFPGVCWDDTAKTMFRIPWKHAGKQDFREDQDAAFFKAWAIFKGKYKEGDTGGPAVWKTRLRCALNKSSEFKEVPERGRMDVAEPYKVYQLLPPGIVSGQPGTQKVPSKRQHSSVSSERKEEEDAMQNCTLSPSVLQDSLNNEEEGASGGAVHSDIGSSSSSSSPEPQEVTDTTEAPFQGDQRSLEFLLPPEPDYSLLLTFIYNGRVVGEAQVQSLDCRLVAEPSGSESSMEQVLFPKPGPLEPTQRLLSQLERGILVASNPRGLFVQQLCPIPISWNAPQAPPGPGPHLLPSNECVELFRTAYFCRDLVRYFQGLGPPPKFQVTLNFWEESHGSSHTPQNLITVKMEQAFARYLLEQTPEQQAAILSLV [R292Q]

Variants of: B3
Settings: with irf9_human IRF9, Q00978

Row | effect of a mutation on the interaction | Variant
4 | increasing interaction | MLLSQNAFIFRSLNLVLMVYISLVFGISYDSPDYTDESCTFKISLRNFRSILSWELKNHSIVPTHYTLLYTIMSKPEDLKVVKNCANTTRSFCDLTDEWRSTHEAYVTVLEGFSGNTTLFSCSHNFWLAIDMSFEPPEFEIVGFTNHINVMVKFPSIVEEELQFDLSLVIEEQSEGIVKKHKPEIKGNMSGNFTYIIDKLIPNTNYCVSVYLEHSDEQAVIKSPLKCTLLPPGQESESAESAKIGGIITVFLIALVLTSTIVTLKWIGYICLRNSLPKVLNFHNFLAWPFPNLPPLEAMDMVEVIYINRKKKVWDYNYDDESDSDTEAAPRTSGGGYTMHGLTVRPLGQASATSTESQLIDPESEEEPDLPEVDVELPTMPKDSPQQLELLSGPCERRKAPLQDPFPEEDYSSTEGSGGRITFNVDLNSVFLRVLDDEDSDDLEAPLMLSSHLEEMVDPEDPDNVQSNHLLASGEGTQPTFPSPSSEGLWSEDAPSDQSDTSESDVDLGDGYIMR [S400A]
5 | decreasing interaction | MLLSQNAFIFRSLNLVLMVYISLVFGISYDSPDYTDESCTFKISLRNFRSILSWELKNHSIVPTHYTLLYTIMSKPEDLKVVKNCANTTRSFCDLTDEWRSTHEAYVTVLEGFSGNTTLFSCSHNFWLAIDMSFEPPEFEIVGFTNHINVMVKFPSIVEEELQFDLSLVIEEQSEGIVKKHKPEIKGNMSGNFTYIIDKLIPNTNYCVSVYLEHSDEQAVIKSPLKCTLLPPGQESESAESAKIGGIITVFLIALVLTSTIVTLKWIGYICLRNSLPKVLNFHNFLAWPFPNLPPLEAMDMVEVIYINRKKKVWDYNYDDESDSDTEAAPRTSGGGYTMHGLTVRPLGQASATSTESQLIDPESEEEPDLPEVDVELPTMPKDSPQQLELLSGPCERRAAPLQDPFPEEDYSSTEGSGGRITFNVDLNSVFLRVLDDEDSDDLEAPLMLSSHLEEMVDPEDPDNVQSNHLLASGEGTQPTFPSPSSEGLWSEDAPSDQSDTSESDVDLGDGYIMR [K399A;S400A]
6 | decreasing interaction | MLLSQNAFIFRSLNLVLMVYISLVFGISYDSPDYTDESCTFKISLRNFRSILSWELKNHSIVPTHYTLLYTIMSKPEDLKVVKNCANTTRSFCDLTDEWRSTHEAYVTVLEGFSGNTTLFSCSHNFWLAIDMSFEPPEFEIVGFTNHINVMVKFPSIVEEELQFDLSLVIEEQSEGIVKKHKPEIKGNMSGNFTYIIDKLIPNTNYCVSVYLEHSDEQAVIKSPLKCTLLPPGQESESAESAKIGGIITVFLIALVLTSTIVTLKWIGYICLRNSLPKVLNFHNFLAWPFPNLPPLEAMDMVEVIYINRKKKVWDYNYDDESDSDTEAAPRTSGGGYTMHGLTVRPLGQASATSTESQLIDPESEEEPDLPEVDVELPTMPKDSPQQLELLSGPCERRASPLQDPFPEEDYSSTEGSGGRITFNVDLNSVFLRVLDDEDSDDLEAPLMLSSHLEEMVDPEDPDNVQSNHLLASGEGTQPTFPSPSSEGLWSEDAPSDQSDTSESDVDLGDGYIMR [K399A]
